Measured values as given in patent publication US20120321554A1 (MODIQUEST B V, published 2012).
Where no end group is shown, it is not given here.

T1: PLXND1-peptide-KLH conjugate (human, also: conjugated to KLH, attachment site not given here)
T1 construct: Coupled to a CM5 chip (27 ug/ml in Na-Acetate pH 4.0) for the Biacore measurements; also called KLH-conjugated peptide
T1 peptide: ALEIQRRFPSPTPTNC-NH2

B1: M13 phage displaying single domain antibody F8 (VHH)
VHH: QVQLQESGGGLVQAGDSLRLSCAASGRTFSTLIMAWFRQAPGKEREFVAAISRGGGSTSYADSVKGRFTISRDNSKNAVYLQMNSLKPDDTAVYYCNARYGSRIYWGQGTQVTVSS
notes: Whole M13 phage particle carrying F8; detected with anti-M13 antibody; also called phage F8; M13 phage associated antibody F8; not shown: M13 phage coat protein to which the sdab is fused (phagemid pHENIXHis8VSV); not described
B2: Llama single domain antibody A12 (soluble sdab, C-terminal 8*His-tag and VSV-G-tag) (VHH)
VHH: QVQLQESGGGLVQPGGSLRLSCAASGSSISINNWGWYRQAPGKQRERVAAISGGGKTVYADSVKGRFTISRDNAKNTVYLQMNSLKPEDTAVYYCRAVRKSTGWLRGLDVWGQGTQVTVSA
notes: also called sdab A12; V-H single domain antibody A12
B3: Llama single domain antibody F8 (soluble sdab, C-terminal 8*His-tag and VSV-G-tag) (VHH)
VHH: B1 VHH
notes: also called sdab F8; V-H single domain antibody F8
B4: M13 phage displaying single domain antibody A12 (VHH)
VHH: B2 VHH
notes: Whole M13 phage particle carrying A12; detected with anti-M13 antibody; also called phage A12; M13 phage associated antibody A12; not shown: M13 phage coat protein to which the sdab is fused (phagemid pHENIXHis8VSV); not described

Key:
Bovine serum albumin [1] = biological target: T2, Bovine serum albumin (bovine, UniProt P02769 25-607); experiment: phage ELISA, anti-M13 detection
T2 construct: Control coat in ELISA; also called BSA

[2] = biological target: mouse plexin D1 (on vessels in mouse tissue) (mouse) (UniProt Q3UH93); experiment: cell-based or functional assay
Bovine serum albumin [3] = biological target: T2, Bovine serum albumin; experiment: ELISA with soluble sdab, detection via VSV-G-tag
[4] = biological target: T3, human plexin D1 (in sections of human tumors) (human, UniProt Q9Y4D7 47-1925); experiment: immunohistochemistry on human tumor tissue
T3 construct: whole, on cells; Endogenous protein on tumor cells and vessels in tissue sections (immunohistochemistry); also called PLXND1

[5] = biological target: T1, PLXND1-peptide-KLH conjugate; experiment: SPR, Biacore 2000; peptide-KLH conjugate on CM5 chip, sdab in solution, BSA surface subtracted, 1:1 Langmuir model

T2 sequence (P02769 25-607 limits assumed): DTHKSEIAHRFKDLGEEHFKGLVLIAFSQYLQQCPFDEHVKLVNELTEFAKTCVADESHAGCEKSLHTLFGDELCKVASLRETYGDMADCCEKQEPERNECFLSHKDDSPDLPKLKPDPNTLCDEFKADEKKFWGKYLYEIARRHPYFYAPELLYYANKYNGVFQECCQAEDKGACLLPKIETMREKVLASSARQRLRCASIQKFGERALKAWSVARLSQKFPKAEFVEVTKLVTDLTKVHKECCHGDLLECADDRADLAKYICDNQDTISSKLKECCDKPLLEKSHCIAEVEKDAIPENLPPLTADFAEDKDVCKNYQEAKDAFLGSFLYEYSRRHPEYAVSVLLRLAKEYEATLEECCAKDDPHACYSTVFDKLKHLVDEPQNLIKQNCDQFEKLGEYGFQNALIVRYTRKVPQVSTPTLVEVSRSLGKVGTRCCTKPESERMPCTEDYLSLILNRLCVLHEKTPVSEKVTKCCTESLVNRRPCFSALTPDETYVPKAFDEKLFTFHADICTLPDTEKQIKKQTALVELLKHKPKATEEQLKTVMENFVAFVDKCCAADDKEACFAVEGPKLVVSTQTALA
T3 sequence (Q9Y4D7 47-1925): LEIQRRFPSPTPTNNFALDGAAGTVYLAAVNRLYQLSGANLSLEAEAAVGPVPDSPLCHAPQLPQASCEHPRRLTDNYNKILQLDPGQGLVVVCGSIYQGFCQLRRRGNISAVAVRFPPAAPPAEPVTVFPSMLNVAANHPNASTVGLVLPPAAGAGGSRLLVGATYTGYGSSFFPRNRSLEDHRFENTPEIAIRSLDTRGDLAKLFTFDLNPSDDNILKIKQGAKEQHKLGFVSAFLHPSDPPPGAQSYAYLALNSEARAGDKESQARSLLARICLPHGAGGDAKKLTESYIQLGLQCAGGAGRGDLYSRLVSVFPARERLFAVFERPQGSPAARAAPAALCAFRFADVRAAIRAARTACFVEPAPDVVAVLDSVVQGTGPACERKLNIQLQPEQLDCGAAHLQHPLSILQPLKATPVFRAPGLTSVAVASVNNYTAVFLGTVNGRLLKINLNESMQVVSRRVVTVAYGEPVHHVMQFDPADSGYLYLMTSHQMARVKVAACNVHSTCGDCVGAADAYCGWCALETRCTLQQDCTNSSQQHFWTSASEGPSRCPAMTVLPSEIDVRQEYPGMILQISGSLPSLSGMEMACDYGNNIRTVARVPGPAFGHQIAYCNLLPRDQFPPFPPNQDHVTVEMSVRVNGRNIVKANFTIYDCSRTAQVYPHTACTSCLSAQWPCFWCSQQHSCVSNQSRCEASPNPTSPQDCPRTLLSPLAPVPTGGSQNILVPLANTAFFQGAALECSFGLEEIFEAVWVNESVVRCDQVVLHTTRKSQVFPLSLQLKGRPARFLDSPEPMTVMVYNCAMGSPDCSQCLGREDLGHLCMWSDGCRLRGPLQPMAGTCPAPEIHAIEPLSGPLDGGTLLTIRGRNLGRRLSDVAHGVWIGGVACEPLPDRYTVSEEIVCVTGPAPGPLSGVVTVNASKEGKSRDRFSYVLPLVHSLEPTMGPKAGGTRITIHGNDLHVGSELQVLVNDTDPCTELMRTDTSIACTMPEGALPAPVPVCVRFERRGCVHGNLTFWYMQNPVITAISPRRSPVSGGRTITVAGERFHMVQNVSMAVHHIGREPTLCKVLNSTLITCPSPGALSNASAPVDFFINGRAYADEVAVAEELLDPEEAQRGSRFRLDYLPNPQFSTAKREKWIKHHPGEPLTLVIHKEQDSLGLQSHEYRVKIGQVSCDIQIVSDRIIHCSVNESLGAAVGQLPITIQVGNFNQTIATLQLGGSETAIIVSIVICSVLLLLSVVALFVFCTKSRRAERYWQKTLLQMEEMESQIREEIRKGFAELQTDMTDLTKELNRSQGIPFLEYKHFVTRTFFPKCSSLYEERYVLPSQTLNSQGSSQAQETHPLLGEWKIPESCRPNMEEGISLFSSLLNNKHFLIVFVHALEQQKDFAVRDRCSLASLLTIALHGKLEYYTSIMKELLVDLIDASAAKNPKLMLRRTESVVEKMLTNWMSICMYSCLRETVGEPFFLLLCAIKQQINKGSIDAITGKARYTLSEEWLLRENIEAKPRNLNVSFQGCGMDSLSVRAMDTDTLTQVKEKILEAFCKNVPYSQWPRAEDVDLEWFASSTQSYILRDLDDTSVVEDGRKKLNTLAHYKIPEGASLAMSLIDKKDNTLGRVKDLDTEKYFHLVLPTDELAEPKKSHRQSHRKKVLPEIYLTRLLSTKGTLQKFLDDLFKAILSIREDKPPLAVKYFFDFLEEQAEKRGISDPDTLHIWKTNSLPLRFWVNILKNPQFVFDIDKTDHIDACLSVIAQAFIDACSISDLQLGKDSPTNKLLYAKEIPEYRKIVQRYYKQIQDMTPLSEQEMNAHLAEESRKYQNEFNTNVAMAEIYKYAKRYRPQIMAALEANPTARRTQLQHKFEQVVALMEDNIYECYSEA
Sequence of mouse plexin D1 (on vessels in mouse tissue) (mouse) (Q3UH93 49-1925): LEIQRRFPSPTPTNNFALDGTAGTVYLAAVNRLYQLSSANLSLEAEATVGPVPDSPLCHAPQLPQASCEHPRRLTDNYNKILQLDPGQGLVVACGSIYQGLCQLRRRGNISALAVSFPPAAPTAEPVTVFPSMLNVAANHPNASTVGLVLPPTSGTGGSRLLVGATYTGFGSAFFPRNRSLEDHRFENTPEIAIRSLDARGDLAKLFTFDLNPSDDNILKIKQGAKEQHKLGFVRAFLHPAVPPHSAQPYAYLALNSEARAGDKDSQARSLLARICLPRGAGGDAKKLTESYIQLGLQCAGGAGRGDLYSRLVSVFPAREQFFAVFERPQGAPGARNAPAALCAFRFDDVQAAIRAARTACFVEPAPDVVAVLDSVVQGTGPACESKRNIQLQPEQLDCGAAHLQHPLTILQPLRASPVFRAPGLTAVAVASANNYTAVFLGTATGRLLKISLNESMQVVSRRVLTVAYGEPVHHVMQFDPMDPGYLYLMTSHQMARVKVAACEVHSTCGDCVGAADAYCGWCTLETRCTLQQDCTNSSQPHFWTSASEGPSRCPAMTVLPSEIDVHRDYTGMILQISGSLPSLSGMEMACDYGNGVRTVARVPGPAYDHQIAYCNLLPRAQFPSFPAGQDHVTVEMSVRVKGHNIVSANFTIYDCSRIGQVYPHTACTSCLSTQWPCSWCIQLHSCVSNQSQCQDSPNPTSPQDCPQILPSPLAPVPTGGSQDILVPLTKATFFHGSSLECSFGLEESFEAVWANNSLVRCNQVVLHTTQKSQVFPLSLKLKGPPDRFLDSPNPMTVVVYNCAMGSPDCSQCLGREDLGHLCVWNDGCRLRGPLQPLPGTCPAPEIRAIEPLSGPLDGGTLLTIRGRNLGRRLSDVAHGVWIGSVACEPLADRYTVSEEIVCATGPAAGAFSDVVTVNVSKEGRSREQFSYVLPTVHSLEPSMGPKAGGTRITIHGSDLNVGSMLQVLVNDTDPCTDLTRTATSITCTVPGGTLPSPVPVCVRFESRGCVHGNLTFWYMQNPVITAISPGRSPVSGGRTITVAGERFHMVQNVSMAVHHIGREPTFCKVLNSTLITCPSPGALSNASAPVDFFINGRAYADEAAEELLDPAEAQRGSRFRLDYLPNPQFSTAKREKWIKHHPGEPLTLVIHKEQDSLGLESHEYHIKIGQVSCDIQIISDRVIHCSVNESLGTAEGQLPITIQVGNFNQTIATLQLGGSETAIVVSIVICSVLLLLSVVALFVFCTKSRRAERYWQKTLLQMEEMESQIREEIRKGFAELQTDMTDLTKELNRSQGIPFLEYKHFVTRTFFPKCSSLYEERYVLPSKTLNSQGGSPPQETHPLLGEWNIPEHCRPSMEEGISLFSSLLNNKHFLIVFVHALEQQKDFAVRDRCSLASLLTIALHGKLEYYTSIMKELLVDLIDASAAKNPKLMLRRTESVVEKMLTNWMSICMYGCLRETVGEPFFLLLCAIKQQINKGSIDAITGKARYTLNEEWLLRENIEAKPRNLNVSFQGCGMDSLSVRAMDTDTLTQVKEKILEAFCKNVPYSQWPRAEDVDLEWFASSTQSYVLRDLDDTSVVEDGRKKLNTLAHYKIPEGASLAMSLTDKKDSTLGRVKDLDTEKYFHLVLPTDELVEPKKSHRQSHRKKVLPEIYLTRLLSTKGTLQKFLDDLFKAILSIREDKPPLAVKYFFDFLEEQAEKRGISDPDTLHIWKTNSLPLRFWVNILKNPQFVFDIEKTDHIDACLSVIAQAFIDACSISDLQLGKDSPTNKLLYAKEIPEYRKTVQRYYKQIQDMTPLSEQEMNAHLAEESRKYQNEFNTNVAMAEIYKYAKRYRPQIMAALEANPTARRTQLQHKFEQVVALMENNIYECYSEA

Row | Binder | binding result (Bovine serum albumin [1]) | quantification of phage homing: colony-forming phages eluted from laser-dissected tumor tissue against unaffected brain [2] | binding result (Bovine serum albumin [3]) | binding result [4] | Kd [5]
1 | B1 | no binding (tested: 10^10 phages) | 20 fold | – | – | –
2 | B2 | – | – | no binding | binds | 21 nM
3 | B3 | – | – | no binding | – | 35 nM
4 | B4 | no binding (tested: 10^10 phages) | – | – | – | –
